From US20240010696A1

Biological target: human IL-12 receptor on cells (human) (UniProt P42701)
Assay: cell-based or functional assay

human IL-12 receptor on cells (human), sequence (Q99665 24-862, chain 2 of 2, other chains not shown): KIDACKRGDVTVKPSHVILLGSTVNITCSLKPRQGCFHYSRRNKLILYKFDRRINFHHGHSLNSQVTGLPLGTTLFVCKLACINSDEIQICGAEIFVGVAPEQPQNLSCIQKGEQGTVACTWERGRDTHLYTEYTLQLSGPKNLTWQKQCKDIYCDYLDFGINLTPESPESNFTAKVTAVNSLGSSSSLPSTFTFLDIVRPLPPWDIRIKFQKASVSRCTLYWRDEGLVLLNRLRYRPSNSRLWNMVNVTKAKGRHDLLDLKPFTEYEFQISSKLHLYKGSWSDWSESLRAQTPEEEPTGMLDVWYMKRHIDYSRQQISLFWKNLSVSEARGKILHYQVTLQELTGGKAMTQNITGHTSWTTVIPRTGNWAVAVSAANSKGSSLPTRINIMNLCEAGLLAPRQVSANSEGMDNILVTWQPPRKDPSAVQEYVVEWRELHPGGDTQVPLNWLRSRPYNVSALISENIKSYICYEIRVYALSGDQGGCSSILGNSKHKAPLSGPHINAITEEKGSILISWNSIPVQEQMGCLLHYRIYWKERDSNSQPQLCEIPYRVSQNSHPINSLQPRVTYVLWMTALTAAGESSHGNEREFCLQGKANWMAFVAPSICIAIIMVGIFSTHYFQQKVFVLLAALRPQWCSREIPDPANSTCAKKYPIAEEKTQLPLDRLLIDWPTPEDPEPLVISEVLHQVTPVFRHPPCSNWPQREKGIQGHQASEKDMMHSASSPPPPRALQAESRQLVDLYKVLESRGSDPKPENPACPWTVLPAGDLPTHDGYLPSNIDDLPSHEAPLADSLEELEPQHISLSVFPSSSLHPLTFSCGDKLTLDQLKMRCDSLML

WT IL-12 (row of Table 10)
EC50 (ug/ml) hIL12R+ PD1+ cells (pSTAT4 reporter cell line, PD1-positive): 0.03 µg/ml
EC50 (ug/ml) hIL12R+ cells (pSTAT4 reporter cell line, PD1-negative): 0.1 µg/ml
